Data taken from patent publication US20250262210A1 (TRUSTEES OF COLUMBIA UNIVERSITY IN THE CITY OF NEW YORK, published 2025).

T1: LZTR1 R810W-FLAG (human, UniProt Q8N653 1-840)
T1 construct: Stably expressed in U87 cells by lentivirus; also called LZTR1-FLAG-R810W; LZTR1 RW; not shown: FLAG tag
T1 sequence (looked up): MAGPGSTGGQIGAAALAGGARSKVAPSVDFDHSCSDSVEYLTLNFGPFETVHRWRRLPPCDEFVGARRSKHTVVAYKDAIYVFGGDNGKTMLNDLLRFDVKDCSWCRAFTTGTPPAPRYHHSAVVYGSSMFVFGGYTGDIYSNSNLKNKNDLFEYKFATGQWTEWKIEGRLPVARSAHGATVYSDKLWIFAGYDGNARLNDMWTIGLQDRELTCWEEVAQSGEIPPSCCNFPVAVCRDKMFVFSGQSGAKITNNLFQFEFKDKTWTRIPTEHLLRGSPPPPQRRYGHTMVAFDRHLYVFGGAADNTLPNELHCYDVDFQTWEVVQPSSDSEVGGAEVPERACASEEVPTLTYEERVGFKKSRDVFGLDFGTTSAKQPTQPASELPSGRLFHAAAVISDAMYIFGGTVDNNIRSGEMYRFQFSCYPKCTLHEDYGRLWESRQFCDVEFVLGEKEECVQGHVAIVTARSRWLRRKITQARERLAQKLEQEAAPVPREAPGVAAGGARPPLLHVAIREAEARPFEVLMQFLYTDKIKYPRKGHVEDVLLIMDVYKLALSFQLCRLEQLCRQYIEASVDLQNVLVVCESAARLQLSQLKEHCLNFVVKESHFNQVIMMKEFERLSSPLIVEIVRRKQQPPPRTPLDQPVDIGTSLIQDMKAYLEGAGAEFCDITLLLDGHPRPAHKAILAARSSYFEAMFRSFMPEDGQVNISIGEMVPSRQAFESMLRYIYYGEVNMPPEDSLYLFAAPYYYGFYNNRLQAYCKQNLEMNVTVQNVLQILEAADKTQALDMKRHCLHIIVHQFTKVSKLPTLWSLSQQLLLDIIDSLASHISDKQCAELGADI

T2: LZTR1-FLAG (human, UniProt Q8N653 1-840)
T2 construct: Expressed in HEK 293T, HeLa or U87 cells; used as cell lysate; also called LZTR1 wild type-FLAG; LZTR1 WT; not shown: FLAG tag at the C-terminus
T2 sequence (looked up): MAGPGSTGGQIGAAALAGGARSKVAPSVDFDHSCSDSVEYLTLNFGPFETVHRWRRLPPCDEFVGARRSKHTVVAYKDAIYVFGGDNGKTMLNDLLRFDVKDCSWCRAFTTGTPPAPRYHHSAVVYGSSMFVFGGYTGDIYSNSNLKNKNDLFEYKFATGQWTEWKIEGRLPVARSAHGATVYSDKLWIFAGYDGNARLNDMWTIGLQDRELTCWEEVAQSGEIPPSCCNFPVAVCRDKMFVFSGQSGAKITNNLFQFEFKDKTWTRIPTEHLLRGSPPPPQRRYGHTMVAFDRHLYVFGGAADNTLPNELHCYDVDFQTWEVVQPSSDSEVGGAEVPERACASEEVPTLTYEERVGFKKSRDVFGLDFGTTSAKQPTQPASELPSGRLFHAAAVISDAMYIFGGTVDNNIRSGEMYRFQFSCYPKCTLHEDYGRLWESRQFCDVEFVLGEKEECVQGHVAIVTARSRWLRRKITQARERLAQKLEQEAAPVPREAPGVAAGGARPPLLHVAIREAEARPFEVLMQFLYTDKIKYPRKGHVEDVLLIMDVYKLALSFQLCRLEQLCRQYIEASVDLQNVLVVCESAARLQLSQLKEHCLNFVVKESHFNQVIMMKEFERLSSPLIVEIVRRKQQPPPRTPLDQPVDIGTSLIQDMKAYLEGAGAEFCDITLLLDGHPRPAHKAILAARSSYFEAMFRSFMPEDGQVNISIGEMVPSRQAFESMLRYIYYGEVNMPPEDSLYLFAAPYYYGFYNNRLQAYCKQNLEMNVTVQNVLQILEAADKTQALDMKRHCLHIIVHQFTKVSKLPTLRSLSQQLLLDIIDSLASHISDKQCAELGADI


What was measured:
[1] = target: T1, LZTR1 R810W-FLAG; assay: IP/MS, LZTR1 R810W-FLAG, U87
Procedure, shortened: (§1)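 Read-out: spectral counts from LC-MS/MS (Orbitrap Fusion) after MaxQuant identification. Variable modifications were Met oxidation, protein N-terminal acetylation and N/Q deamidation.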

[2] = target: T2, LZTR1-FLAG; assay: IP/MS, LZTR1 wild type-FLAG, U87
Procedure, shortened: as §1

Binder | binding result [1] | binding result [2]
IKBKB (other, human, UniProt O14920 1-756, looked up) MSWSPSLTTQTCGAWEMKERLGTGGFGNVIRWHNQETGEQIAIKQCRQELSPRNRERWCLEIQIMRRLTHPNVVAARDVPEGMQNLAPNDLPLLAMEYCQGGDLRKYLNQFENCCGLREGAILTLLSDIASALRYLHENRIIHRDLKPENIVLQQGEQRLIHKIIDLGYAKELDQGSLCTSFVGTLQYLAPELLEQQKYTVTVDYWSFGTLAFECITGFRPFLPNWQPVQWHSKVRQKSEVDIVVSEDLNGTVKFSSSLPYPNNLNSVLAERLEKWLQLMLMWHPRQRGTDPTYGPNGCFKALDDILNLKLVHILNMVTGTIHTYPVTEDESLQSLKARIQQDTGIPEEDQELLQEAGLALIPDKPATQCISDGKLNEGHTLDMDLVFLFDNSKITYETQISPRPQPESVSCILQEPKRNLAFFQLRKVWGQVWHSIQTLKEDCNRLQQGQRAAMMNLLRNNSCLSKMKNSMASMSQQLKAKLDFFKTSIQIDLEKYSEQTEFGITSDKLLLAWREMEQAVELCGRENEVKLLVERMMALQTDIVDLQRSPMGRKQGGTLDDLEEQARELYRRLREKPRDQRTEGDSQEMVRLLLQAIQSFEKKVRVIYTQLSKTVVCKQKALELLPKVEEVVSLMNEDEKTVVRLQEKRQKELWNLLKIACSKVRGPVSGSPDSMNASRLSQPGQLMSQPSTASNSLPEPAKKSEELVAEAHNLCTLLENAIQDTVREQDQSFTALDWSWLQTEEEEHSCLEQAS | binds | binds
KLHL11 (other, human, UniProt Q9NVR0 16-708, looked up) ASLQVLEMESMETAAAGSAGLAAEVRGSGTVDFGPGPGISAMEASGGDPGPEAEDFECSSHCSELSWRQNEQRRQGLFCDITLCFGGAGGREFRAHRSVLAAATEYFTPLLSGQFSESRSGRVEMRKWSSEPGPEPDTVEAVIEYMYTGRIRVSTGSVHEVLELADRFLLIRLKEFCGEFLKKKLHLSNCVAIHSLAHMYTLSQLALKAADMIRRNFHKVIQDEEFYTLPFHLIRDWLSDLEITVDSEEVLFETVLKWVQRNAEERERYFEELFKLLRLSQMKPTYLTRHVKPERLVANNEVCVKLVADAVERHALRAENIQSGTCQHPTSHVSLLPRYGQNMDVIMVIGGVSEGGDYLSECVGYFVDEDRWVNLPHIHNHLDGHAVAVTESYVYVAGSMEPGFAKTVERYNPNLNTWEHVCSLMTRKHSFGLTEVKGKLYSIGGHGNFSPGFKDVTVYNPELDKWHNLESAPKILRDVKALAIEDRFVYIAARTPVDRDTEDGLKAVITCYDTETRQWQDVESLPLIDNYCFFQMSVVNSNFYQTASCCPKSYCLENEEAVRKIASQVSDEILESLPPEVLSIEGAAICYYKDDVFIIGGWKNSDDIDKQYRKEAYRYCAERKRWMLLPPMPQPRCRATACHVRIPYRYLHGTQRYPMPQNLMWQKDRIRQMQEIHRHALNMRRVPSSQIEC | binds | binds
KLHL21 (other, human, UniProt Q9UJP4 1-597, looked up) MERPAPLAVLPFSDPAHALSLLRGLSQLRAERKFLDVTLEAAGGRDFPAHRAVLAAASPYFRAMFAGQLRESRAERVRLHGVPPDMLQLLLDFSYTGRVAVSGDNAEPLLRAADLLQFPAVKEACGAFLQQQLDLANCLDMQDFAEAFSCSGLASAAQRFILRHVGELGAEQLERLPLARLLRYLRDDGLCVPKEEAAYQLALRWVRADPPRRAAHWPQLLEAVRLPFVRRFYLLAHVEAEPLVARCPPCLRLLREARDFQAARYDRHDRGPCPRMRPRPSTGLAEILVLVGGCDQDCDELVTVDCYNPQTGQWRYLAEFPDHLGGGYSIVALGNDIYVTGGSDGSRLYDCVWRYNSSVNEWAEVAPMLKAREYHSSSVLDGLLYVVAADSTERYDHTTDSWEALQPMTYPMDNCSTTACRGRLYAIGSLAGKETMVMQCYDPDTDLWSLVDCGQLPPWSFAPKTATLNGLMYFVRDDSAEVDVYNPTRNEWDKIPSMNQVHVGGSLAVLGGKLYVSGGYDNTFELSDVVEAYDPETRAWSVVGRLPEPTFWHGSVSIFRQFMPQTFSGGRGFELDSGSDDMDPGRPRPPRDPDELH | binds | binds
KLHL26 (other, human, UniProt Q53HC5 2-615, looked up) AESGGSSGGAGGGGAFGAGPGPERPNSTADKNGALKCTFSAPSHSTSLLQGLATLRAQGQLLDVVLTINREAFPAHKVVLAACSDYFRAMFTGGMREASQDVIELKGVSARGLRHIIDFAYSAEVTLDLDCVQDVLGAAVFLQMLPVVELCEEFLKAAMSVETCLNIGQMATTFSLASLRESVDAFTFRHFLQIAEEEDFLRLPLERLVFFLQSNRLQSCAEIDLFRAAVRWLQHDPARRPRASHVLCHIRFPLMQSSELVDSVQTLDIMVEDVLCRQYLLEAFNYQVLPFRQHEMQSPRTAVRSDVPSLVTFGGTPYTDSDRSVSSKVYQLPEPGARHFRELTEMEVGCSHTCVAVLDNFVYVAGGQHLQYRSGEGAVDACYRYDPHLNRWLRLQAMQESRIQFQLNVLCGMVYATGGRNRAGSLASVERYCPRRNEWGYACSLKRRTWGHAGAASGGRLYISGGYGISVEDKKALHCYDPVADQWEFKAPMSEPRVLHAMVGAGGRIYALGGRMDHVDRCFDVLAVEYYVPETDQWTSVSPMRAGQSEAGCCLLERKIYIVGGYNWRLNNVTGIVQVYNTDTDEWERDLHFPESFAGIACAPVLLPRAGTRR | binds | binds

Other lines, results leading:

binding result [1] | binding result [2] | Binder
binds | binds | MAEA (other, human, UniProt Q7L5Y9 1-396, looked up) MAVQESAAQLSMTLKVQEYPTLKVPYETLNKRFRAAQKNIDRETSHVTMVVAELEKTLSGCPAVDSVVSLLDGVVEKLSVLKRKAVESIQAEDESAKLCKRRIEHLKEHSSDQPAAASVWKRKRMDRMMVEHLLRCGYYNTAVKLARQSGIEDLVNIEMFLTAKEVEESLERRETATCLAWCHDNKSRLRKMKSCLEFSLRIQEFIELIRQNKRLDAVRHARKHFSQAEGSQLDEVRQAMGMLAFPPDTHISPYKDLLDPARWRMLIQQFRYDNYRLHQLGNNSVFTLTLQAGLSAIKTPQCYKEDGSSKSPDCPVCSRSLNKLAQPLPMAHCANSRLVCKISGDVMNENNPPMMLPNGYVYGYNSLLSIRQDDKVVCPRTKEVFHFSQAEKVYIM
binds | binds | KLHDC10 (other, human, UniProt Q6PID8 1-442, looked up) MSAAQGWDRNRRRGGGAAGAGGGGSGAGGGSGGSGGRGTGQLNRFVQLSGRPHLPGKKKIRWDPVRRRFIQSCPIIRIPNRFLRGHRPPPARSGHRCVADNTNLYVFGGYNPDYDESGGPDNEDYPLFRELWRYHFATGVWHQMGTDGYMPRELASMSLVLHGNNLLVFGGTGIPFGESNGNDVHVCNVKYKRWALLSCRGKKPSRIYGQAMAIINGSLYVFGGTTGYIYSTDLHKLDLNTREWTQLKPNNLSCDLPEERYRHEIAHDGQRIYILGGGTSWTAYSLNKIHAYNLETNAWEEIATKPHEKIGFPAARRCHSCVQIKNDVFICGGYNGEVILGDIWKLNLQTFQWVKLPATMPEPVYFHCAAVTPAGCMYIHGGVVNIHENKRTGSLFKIWLVVPSLLELAWEKLLAAFPNLANLSRTQLLHLGLTQGLIERLK
